From patent US20090208538A1 (ROCKEFELLER UNIVERSITY, published 2009)

Key:
[1] = target: T1, HLA-A*0201 (human); assay: iTopia binding;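 note: each peptide tested for binding to HLA-A2 molecules immobilized on plates, using a commercial screening kit run per its supplied protocol and reagents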
T1 construct: also called HLA-A2.1; HLA A2.1

[2] = target: T1, HLA-A*0201; assay: iTopia affinity;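 note: peptide affinity for plate-bound HLA-A2 molecules (iTopia system), with ED50 derived from an eight-point serial peptide dilution series run under binding assay conditions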
[3] = target: T1, HLA-A*0201; assay: iTopia off-rate;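 note: Half-life of peptide complexes with plate-bound HLA-A2, peptides loaded 18 h at 21 C, washed, then held at 37 C over several time points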
[4] = target: T1, HLA-A*0201; assay: iTopia net score;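 note: combined score from peptide binding, ED₅₀ and half-life of peptide complexes with plate-bound HLA-A2 molecules, computed by a proprietary formula in iTopia software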
[5] = target: HLA-A*2402 (human); assay: iTopia affinity;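 note: peptide binding to HLA-A*2402 measured in iTopia kit format across eight serial peptide dilutions, ED50 derived from the resulting titration curve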
[6] = target: HLA-A*2402 (human); assay: iTopia off-rate
[7] = target: HLA-A*2402 (human); assay: iTopia net score;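 note: iScore from iTopia software combining peptide binding, affinity over a dilution series and off-rate after warming to body temperature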

| Binder | binding vs positive control [1] [%] | ED50 [2] [µM] | t1/2 [3] | iScore [4] | ED50 [5] [µM] | t1/2 [6] | iScore [7] |
| --- | --- | --- | --- | --- | --- | --- | --- |
| VTMEEEYGL [cdr2 217-225 VTMEEEYGL] | > 30 | 2 | 6.5 | 0.528 |  |  |  |
| LGATGAYRA [cdr2 237-245 LGATGAYRA] | > 30 | 10 | 1.2 | 0.13 |  |  |  |
| RGISLLHEV [cdr2 341-349 RGISLLHEV] | > 30 | 1 | 7 | 0.752 |  |  |  |
| VKQRGISLL [cdr2 338-346 VKQRGISLL] |  |  |  |  | 10 | 1.15 | 0.172 |
| TILSSLAGS (Position printed as 313-221) [cdr2 313-221 TILSSLAGS] | > 30 | 2 | 1.1 | 0.238 |  |  |  |
| PFVNGVEKL [cdr2 266-274 PFVNGVEKL] |  |  |  |  | 1.4 | 0.49 | 0.218 |
| DSLSHKAVQ [cdr2 372-380 DSLSHKAVQ] | > 30 | 9 | 6.3 | 0.262 |  |  |  |
| LFKEIFSCI [cdr2 425-433 LFKEIFSCI] |  |  |  |  | 0.075 | 1.11 | 0.529 |
| SQVEELKSS [cdr2 131-139 SQVEELKSS] | > 30 | 11 | 2.42 | 0.154 |  |  |  |
| EYKALFKEI [cdr2 421-429 EYKALFKEI] |  |  |  |  | 0.44 | 1.63 | 0.505 |
| QYSALKVKY [cdr2 352-360 QYSALKVKY] |  |  |  |  | 3.1 | 0.35 | 0.098 |
| AAAKDLTGV [cdr2 384-392 AAAKDLTGV] | > 30 | 3 | 6.5 | 0.469 |  |  |  |
| SLSHKAVQT [cdr2 373-381 SLSHKAVQT] | > 30 | 4 | 0.8 | 0.129 |  |  |  |
| KLVPDSLYV [cdr2 273-281 KLVPDSLYV] | > 30 | 3 | 6.1 | 0.499 |  |  |  |
| EMFLTVPES [cdr2 293-301 EMFLTVPES] | > 30 | 17 | 1.38 | 0.15 |  |  |  |
| YDHVFAEKI [cdr2 173-181 YDHVFAEKI] |  |  |  |  | 18 | 0.75 | 0.089 |
| SSLAGSDIV [cdr2 316-324 SSLAGSDIV] |  |  |  |  | 43 | 1.32 | 0.081 |
| LYDLRQHFV [cdr2 164-172 LYDLRQHFV] | > 30 | 0.5 | 0.4 | 0.199 | 1.6 | 0.27 | 0.157 |
| FVYDHVFAE [cdr2 171-179 FVYDHVFAE] | > 30 | 10 | 5.5 | 0.282 |  |  |  |
| EYLTKQVEL [cdr2 64-72 EYLTKQVEL] |  |  |  |  | 0.65 | 1.72 | 0.444 |
| CLQTNIDHL [cdr2 121-129 CLQTNIDHL] | > 30 | 20 | 2.4 | 0.176 |  |  |  |
| EQLQEIEYL [cdr2 58-66 EQLQEIEYL] |  |  |  |  | 3.4 | 1.47 | 0.142 |
| LSLTETIEC [cdr2 113-121 LSLTETIEC] | > 30 | 0.95 | 0.51 | 0.187 |  |  |  |
